In patent US20200010818, “EVALUATION AND IMPROVEMENT OF NUCLEASE CLEAVAGE SPECIFICITY” (President and Fellows of Harvard College, published 2020):

molecular target: T1, VF2468 ZFN heterodimer (UniProt P14870;P14870 SEQ:1-324,SEQ:1-324); experiment: cell_activity; K562; printed value; conditions: tags: FokI obligate heterodimer; in vitro selection used in vitro-translated protein; chain copies: 2 (stated heterodimer)
Experimental: (§1) PCR for 37 potential CCR5-224 substrates and 97 potential VF2468 substrates was performed with Phusion DNA Polymerase (NEB) and primers “[ZFN] […] fwd” and “[ZFN] […] rev” (Table 9) in 1× Phusion HF Buffer supplemented with 3% DMSO. Primers were designed using Primer3³³. The amplified DNA was purified with the Qiagen PCR Purification Kit, eluted with 10 mM Tris-HCl, pH 8.5, and quantified by 1K Chip on a LabChip GX instrument (Caliper Life Sciences) and combined into separate equimolar pools for the catalytically active and empty vector control samples. PCR products were not obtained for 3 CCR5 sites and 7 VF2468 sites, which excluded these samples from further analysis. Multiplexed Illumina library preparation was performed according to the manufacturer's specifications, except that AMPure XP beads (Agencourt) were used for purification following adapter ligation and PCR enrichment steps. Illumina indices 11 (“GGCTAC”) and 12 (“CTTGTA”) were used for ZFN-treated libraries while indices 4 (“TGACCA”) and 6 (“GCCAAT”) were used for the empty vector controls. Library concentrations were quantified by KAPA Library Quantification Kit for Illumina Genome Analyzer Platform (Kapa Biosystems). Equal amounts of the barcoded libraries derived from active- and empty vector-treated cells were diluted to 10 nM and subjected to single read sequencing on an Illumina HiSeq 2000 at the Harvard University FAS Center for Systems Biology Core facility. Sequences were analyzed using Protocol 9 for active ZFN samples and empty vector controls.

T1 sequence (P14870 other isoform, or with tags, fused parts or gaps, chain 1 of 2): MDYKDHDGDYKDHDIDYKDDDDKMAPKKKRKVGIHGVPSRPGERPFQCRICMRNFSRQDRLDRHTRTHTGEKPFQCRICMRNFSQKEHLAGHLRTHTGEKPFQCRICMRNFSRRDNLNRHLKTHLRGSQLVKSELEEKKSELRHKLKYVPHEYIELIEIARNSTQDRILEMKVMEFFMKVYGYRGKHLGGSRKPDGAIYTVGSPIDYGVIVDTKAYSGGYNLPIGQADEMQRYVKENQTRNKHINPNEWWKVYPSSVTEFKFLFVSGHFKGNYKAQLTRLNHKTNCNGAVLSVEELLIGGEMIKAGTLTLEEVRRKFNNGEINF
T1 sequence (P14870 other isoform, or with tags, fused parts or gaps, chain 2 of 2): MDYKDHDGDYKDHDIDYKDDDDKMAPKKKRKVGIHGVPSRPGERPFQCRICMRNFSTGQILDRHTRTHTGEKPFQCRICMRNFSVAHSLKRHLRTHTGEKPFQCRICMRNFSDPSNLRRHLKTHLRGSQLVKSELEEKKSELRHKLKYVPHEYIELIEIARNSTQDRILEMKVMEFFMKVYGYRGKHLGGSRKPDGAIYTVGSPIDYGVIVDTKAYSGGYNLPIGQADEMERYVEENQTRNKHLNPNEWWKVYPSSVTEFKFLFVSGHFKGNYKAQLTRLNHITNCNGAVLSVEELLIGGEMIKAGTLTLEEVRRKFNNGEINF

| Binder | activity |
| --- | --- |
| VF2468 62 (dsDNA) DNA 1: TGCAGCGGCGTAGGGGAGTGAGGA DNA 2: TCCTCACTCCCCTACGCCGCTGCA | 0.085 % indels |
| VF2468 69 MTX2 (dsDNA) DNA 1: AGCAGCGGCGGCTGCAGTGAGGC DNA 2: GCCTCACTGCAGCCGCCGCTGCT | 0.3 % indels |
| VF2468 66 GBF1 (dsDNA) DNA 1: AGCAACGTCCATAGTGTGTGAGAA DNA 2: TTCTCACACACTATGGACGTTGCT | 0.64 % indels |
| VF2468 38 (dsDNA) DNA 1: AGCATCGTCTTCTGTGAGTGAGTA DNA 2: TACTCACTCACAGAAGACGATGCT | 0.082 % indels |

molecular target: CCR5-224 ZFN heterodimer (UniProt P14870; SEQ:1-353,SEQ:1-352); experiment: cell_activity; K562; in vitro selected at 4 nM; conditions: tags: FokI obligate heterodimer; in vitro selection used in vitro-translated protein; chain copies: 2 (stated heterodimer)
Sequence (P14870 other isoform, or with tags, fused parts or gaps, chain 1 of 2): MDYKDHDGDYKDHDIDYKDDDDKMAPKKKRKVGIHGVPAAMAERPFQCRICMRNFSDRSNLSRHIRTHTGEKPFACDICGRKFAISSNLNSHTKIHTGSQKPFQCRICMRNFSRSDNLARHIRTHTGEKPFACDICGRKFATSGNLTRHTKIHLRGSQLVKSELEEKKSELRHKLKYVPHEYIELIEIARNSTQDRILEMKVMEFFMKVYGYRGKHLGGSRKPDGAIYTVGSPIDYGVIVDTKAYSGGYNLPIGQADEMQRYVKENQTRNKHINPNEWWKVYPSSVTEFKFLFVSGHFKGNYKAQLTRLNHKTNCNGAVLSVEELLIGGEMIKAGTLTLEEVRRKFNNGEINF
Sequence (P14870 other isoform, or with tags, fused parts or gaps, chain 2 of 2): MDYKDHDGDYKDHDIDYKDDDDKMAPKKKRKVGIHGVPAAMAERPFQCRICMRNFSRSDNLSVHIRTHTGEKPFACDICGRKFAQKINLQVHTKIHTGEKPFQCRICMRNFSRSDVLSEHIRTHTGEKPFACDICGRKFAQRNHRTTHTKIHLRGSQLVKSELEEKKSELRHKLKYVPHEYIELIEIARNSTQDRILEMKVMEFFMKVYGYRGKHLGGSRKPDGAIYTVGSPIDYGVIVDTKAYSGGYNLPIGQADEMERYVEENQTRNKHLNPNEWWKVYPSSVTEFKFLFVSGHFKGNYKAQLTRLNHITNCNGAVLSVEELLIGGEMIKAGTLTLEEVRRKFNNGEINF
Experimental: as §1

| Binder | activity |
| --- | --- |
| CCR5-224 11 TACR3 (dsDNA) DNA 1: GTCATCTTCATCAGCATAAACTGTAAAGT DNA 2: ACTTTACAGTTTATGCTGATGAAGATGAC | 0.34 % indels |
| CCR5-224 14 (dsDNA) DNA 1: GTCCTGCTCAGCAAAAGAAACTGAAAAAG DNA 2: CTTTTTCAGTTTCTTTTGCTGAGCAGGAC | 0.025 % indels |
| CCR5-224 15 KCNB2 (dsDNA) DNA 1: ATGTTCCTCATCTCCCGAAACTGCAAATG DNA 2: CATTTGCAGTTTCGGGAGATGAGGAACAT | 0.071 % indels |
| CCR5-224 25 WBSCR17 (dsDNA) DNA 1: GTTATCCTCAGCAAACTAAAACTGGAACAG DNA 2: CTGTTCCAGTTTTAGTTTGCTGAGGATAAC | 0.12 % indels |
| CCR5-224 21 (dsDNA) DNA 1: GTCAACCTCAACACCTACAGACTGCAAAAG DNA 2: CTTTTGCAGTCTGTAGGTGTTGAGGTTGAC | 0.06 % indels |
| CCR5-224 16 (dsDNA) DNA 1: GTCTTCCTGATGCTACCAAACTGGAAAAG DNA 2: CTTTTCCAGTTTGGTAGCATCAGGAAGAC | 0.019 % indels |
| CCR5-224 9 (dsDNA) DNA 1: GTCATCTTCATCAAAAGGAACTGCAAAAC DNA 2: GTTTTGCAGTTCCTTTTGATGAAGATGAC | 0.035 % indels |

molecular target: T1, VF2468 ZFN heterodimer; experiment: cell_activity; K562; conditions: tags: FokI obligate heterodimer; in vitro selection used in vitro-translated protein; chain copies: 2 (stated heterodimer)
Experimental: as §1

| Binder | activity |
| --- | --- |
| VF2468 28 (dsDNA) DNA 1: AGCAGCTTCTCCTGGGAGTGAGGG DNA 2: CCCTCACTCCCAGGAGAAGCTGCT | 0.32 % indels |
| VF2468 79 (dsDNA) DNA 1: AGCACCGTGGCTTCGAGTGAGGC DNA 2: GCCTCACTCGAAGCCACGGTGCT | 0.029 % indels |
| VF2468 35 (dsDNA) DNA 1: AGCAGTGTCCTAAGGGGGTGAGGA DNA 2: TCCTCACCCCCTTAGGACACTGCT | 0.13 % indels |
| VF2468 15 (dsDNA) DNA 1: AGCAACGTCATATTCAGTGAGGA DNA 2: TCCTCACTGAATATGACGTTGCT | 0.06 % indels |
| VF2468 73 (dsDNA) DNA 1: AGCAAAGTCTGTACTGAGTGAGGG DNA 2: CCCTCACTCAGTACAGACTTTGCT | 1.3 % indels |
| VF2468 19 TTC4 (dsDNA) DNA 1: AGCAGAGTCTCTGAGAGTGAGGC DNA 2: GCCTCACTCTCAGAGACTCTGCT | 0.086 % indels |
| VF2468 72 (dsDNA) DNA 1: AGAAACGTCGTGGAGGAGTGAGGG DNA 2: CCCTCACTCCTCCACGACGTTTCT | 0.042 % indels |
| VF2468 18 (dsDNA) DNA 1: AGCAGAGTCAGACTTGAGTGAGGT DNA 2: ACCTCACTCAAGTCTGACTCTGCT | 0.1 % indels |
| VF2468 68 (dsDNA) DNA 1: AGCACCGTCCCCCTCAGTGAGGC DNA 2: GCCTCACTGAGGGGGACGGTGCT | 0.28 % indels |
| VF2468 24 (dsDNA) DNA 1: AGCAGCGTATCACATGAGTGAGGG DNA 2: CCCTCACTCATGTGATACGCTGCT | 0.44 % indels |
| VF2468 11 (dsDNA) DNA 1: AGCAGCGTCTCCCTTGAGTGATGG DNA 2: CCATCACTCAAGGGAGACGCTGCT | 0.04 % indels |
| VF2468 23 (dsDNA) DNA 1: AGCAGCGACGCCTGGGAGTGAGGT DNA 2: ACCTCACTCCCAGGCGTCGCTGCT | 1.1 % indels |
| VF2468 78 (dsDNA) DNA 1: AGCAATGTCAAAAAGAGTGAGGC DNA 2: GCCTCACTCTTTTTGACATTGCT | 0.15 % indels |
| VF2468 29 (dsDNA) DNA 1: AGCAGGGTCAGGGCTGAGTGAGGC DNA 2: GCCTCACTCAGCCCTGACCCTGCT | 0.2 % indels |
